In patent US20210388118A1 (ZHEJIANG SHIMAI PHARMACEUTICAL, published 2021):

Assays:
[1] = biological target: T1, human EGFR on cells (HCT116, A549, A431, HT29) (human, UniProt P00533 25-1210); assay: flow cytometry on A549 cells, Fab at 100 nM
T1 construct: whole, on cells; also called cell surface EGFR; cell-surface EGFR
Protocol: To measure the binding of SMET5 Fab to cell surface EGFR, about 5×10⁵ cells were incubated with 100 nM antibody on ice for 1 h. The cells were washed once with PBS containing 0.1% bovine serum albumin (PBSA) and resuspended in 200 μl PBSA. Then 5 μl anti-His-PE conjugate was added and incubated for 30 min. The cells were washed once with PBSA and then used for flow cytometry analysis.

[2] = biological target: T2, recombinant human EGFR (human, UniProt P00533 25-645); assay: ELISA, recombinant human EGFR coated, Fab
T2 construct: Bought protein; construct not described; also called hEGFR
Protocol: (§1) ELISA was performed according to standard protocols. Briefly, recombinant human or cynomolgus EGFR was coated on Corning EIA/RIA high-binding 96-well plates (Corning Inc.) at 50 ng per well overnight at 4° C. and blocked with 3% nonfat milk in PBS (pH7.4). Fivefold serially diluted antibodies were added and incubated at room temperature for 2 hours. The plates were washed with PBS containing 0.05% Tween 20. Bound Fab and IgG1s were detected by HRP-conjugated anti-FLAG tag antibody and HRP-conjugated anti-human IgG (Fc-specific) antibody, respectively. The assay was developed at room temperature with TMB substrate (Sigma-Aldrich) and monitored at 450 nm with a microplate reader. The half-maximal binding (EC₅₀) was calculated by fitting the data to the Langmuir adsorption isotherm.

[3] = biological target: T2, recombinant human EGFR; assay: ELISA, recombinant human EGFR coated
Protocol: as §1

[4] = biological target: T3, recombinant cynomolgus EGFR (cynomolgus, UniProt A0A2K5WK39 25-645); assay: ELISA, recombinant cynomolgus EGFR coated
T3 construct: Bought protein; construct not described
Protocol: as §1

[5] = biological target: T2, recombinant human EGFR; assay: ELISA, recombinant EGFR coated
Protocol: as §1

[6] = biological target: T1, human EGFR on cells (HCT116, A549, …); assay: flow cytometry on A549 cells, 2 µg/mL
Protocol: To measure the binding of IgG1 s of SMET5 variants to cell surface EGFR, about 5×10⁵ cells were incubated with 2 μg mL⁻¹ antibodies on ice for 1 h. The cells were washed once with PBSA and resuspended in 200 μl PBSA. Then 5 μ1 goat F(ab′)2 anti-human IgG (γ)-FITC conjugate was added and incubated for 30 min. The cells were washed once with PBSA and then used for flow cytometry analysis.

| Binder | binding result [2] | binding result [5] | binding result [6] | also measured |
| --- | --- | --- | --- | --- |
| SMET5 Fab (Fab, V domains shown, Human Fab from a phage library, expressed in E. coli, His-tagged and detected by anti-FLAG; also called SMETS) VH: EVQLVETGGGVVQPGRSLRLSCAASGFTFSSYAMHWVRQAPGKGLEWVAVISYDGSNKYYADSVKGRFTISRDNSKNTLYLQMNSLRAEDTAVYYCARGYVARGDFDYWGQGTLVTVSS VL: DIQMTQSPSTLSASVGDRVTITCRASQTVDSWLAWYQQKPGKAPKLLIYATSSLQSGVPSRFSGSGSGTDFTLTISSLQPEDFATYYCQQGHIAPHTFGQGTTLEIK | binds | – | – | binding result [1]: binds |
| SMET5.2 IgG1 (antibody, V domains shown, Human IgG1 from 293FS cells) VH: EVQLVETGGGVVQPGRSLRLSCAASGFTFSSYAMHWVRQAPGKGLEWVAVISYDGSNKYYADSVKGRFTISRDNSKNTLYLQMNSLRAEDTAVYYCARGYVARGDFDYWGQGTLVTVSS VL: DVVMTQSPSTLSASVGDRVTITCRASQSMSRWLAWYQQKPGKGPKLLIYATSTLQSGVPSRFSGSGSGTEFTLTISSLQPEDFATYYCQQLDSFPFSFTFGPGTKVDLKR | – | – | – | EC50 [3]: 1.4 nM; EC50 [4]: 0.76 nM |
| SMET5.3 Fab (Fab, V domains shown, His-tagged Fab) VH: EVQLVETGGGVVQPGRSLRLSCAASGFTFSSYAMHWVRQAPGKGLEWVAVISYDGSNKYYADSVKGRFTISRDNSKNTLYLQMNSLRAEDTAVYYCARGYVARGDFDYWGQGTLVTVSS VL: DIQLTQSPSTLSASVGDRVTITCRSNQTADSWLAWYQQKPGKAPNLLIYAASNLQSGVPSRFSGSGSGTDFTLTISSLQPEDFATYYCQQSYSTPFMFTFGQGTKLEIK | binds | – | – | – |
| SMET5 IgG1 (antibody, V domains shown, Human IgG1 from 293FS cells; also called SMETS IgG1) VH: EVQLVETGGGVVQPGRSLRLSCAASGFTFSSYAMHWVRQAPGKGLEWVAVISYDGSNKYYADSVKGRFTISRDNSKNTLYLQMNSLRAEDTAVYYCARGYVARGDFDYWGQGTLVTVSS VL: DIQMTQSPSTLSASVGDRVTITCRASQTVDSWLAWYQQKPGKAPKLLIYATSSLQSGVPSRFSGSGSGTDFTLTISSLQPEDFATYYCQQGHIAPHTFGQGTTLEIKR | – | binds | binds | – |
| SMET5.3 IgG1 (antibody, V domains shown, Human IgG1 from 293FS cells) VH: EVQLVETGGGVVQPGRSLRLSCAASGFTFSSYAMHWVRQAPGKGLEWVAVISYDGSNKYYADSVKGRFTISRDNSKNTLYLQMNSLRAEDTAVYYCARGYVARGDFDYWGQGTLVTVSS VL: DIQLTQSPSTLSASVGDRVTITCRSNQTADSWLAWYQQKPGKAPNLLIYAASNLQSGVPSRFSGSGSGTDFTLTISSLQPEDFATYYCQQSYSTPFMFTFGQGTKLEIKR | – | binds | binds | – |
| SMET5.4 Fab (Fab, V domains shown, His-tagged Fab) VH: EVQLVETGGGVVQPGRSLRLSCAASGFTFSSYAMHWVRQAPGKGLEWVAVISYDGSNKYYADSVKGRFTISRDNSKNTLYLQMNSLRAEDTAVYYCARGYVARGDFDYWGQGTLVTVSS VL: DIQLTQSPSSVSASVGDRVTITCRASQGISSWLAWYQQKPGKAPKLLIYAASALQSGVPSRFSGSGSGTEFTLTIYDLQPDDFATYFCQQYDTFLWTFGQGTKVEIK | binds | – | – | – |
